Percent decrease of tau in the pelleted microtubule fraction relative to unmodified hT39 data for one substance are collected here from paper PMC11927755.

For the experiment, the target named is preformed microtubules (polymerized tubulin, paclitaxel-stabilised) (UniProt P02550). As to the kind of experiment: co-sedimentation; microtubule spin-down: 1 μM tau with paclitaxel-stabilised preformed microtubules in general tubulin buffer (80 mM PIPES pH 7.0, 1 mM MgCl2, 1 mM EGTA), 30 min at RT, through a sucrose cushion at 100,000 RCF for 40 min, pellet washed twice; tau (Tau5) and tubulin (5H1) in supernatant and pellet by Western blot; % tau in pellet. A general note: In western blotting, separated proteins are transferred to a membrane and probed.
Chain of UniProt P02550 (P02550 whole entry, looked up): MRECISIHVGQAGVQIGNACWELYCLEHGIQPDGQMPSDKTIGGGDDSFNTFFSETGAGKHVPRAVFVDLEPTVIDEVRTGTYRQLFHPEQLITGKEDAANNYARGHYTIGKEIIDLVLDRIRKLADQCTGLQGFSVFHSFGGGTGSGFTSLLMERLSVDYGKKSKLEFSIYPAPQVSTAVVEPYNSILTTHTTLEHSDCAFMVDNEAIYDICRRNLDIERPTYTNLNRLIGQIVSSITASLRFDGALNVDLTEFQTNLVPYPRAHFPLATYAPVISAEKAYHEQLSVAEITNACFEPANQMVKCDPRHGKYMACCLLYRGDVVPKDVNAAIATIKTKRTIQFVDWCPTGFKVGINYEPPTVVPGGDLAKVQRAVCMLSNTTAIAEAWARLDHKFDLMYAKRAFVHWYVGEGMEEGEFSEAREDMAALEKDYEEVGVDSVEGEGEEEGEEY

In turn, “O-GlcNAc modified hT39 (Glc hT39, 2N3R tau) (from UniProt P10636-5 1-410) (natural protein)” returned a percent decrease of tau in the pelleted microtubule fraction relative to unmodified hT39 of 45%.
